Consider two molecules from US20060287503, “Retinoid X receptor-interacting polypeptides and related molecules and methods” (published 2006).

For data set [1], the target named is T1, RIP14-1/RXRalpha heterodimer (Mus musculus / Homo sapiens, UniProt Q60641-2;P19793 Q60641-2:1-484,P19793:1-462). Put plainly: EMSA; competition with 50-fold unlabeled betaRARE (specific) and AP1 (nonspecific) tested. As to conditions: tags: human RXRalpha expressed in E. coli; label: 32P end label. The method, then:
(§1) In panel A, RIP14-1 without (lane 2) or with RXR (lanes 3-5) was incubated with the hsp27 promoter (EcRE) end-labeled with [³²P]ATP. In panel B, RIP15 (lanes 2-5) and RIP14-1 (lanes 9-12) without (lanes 2 and 9) or with (lanes 3-5 and 10-12) RXR were incubated with βRARE end-labeled with [³²P]ATP. In both cases, a 50-fold molar excess of unlabeled specific (sp; EcRE, lane A4 and βRARE, lanes B4 and B11) or nonspecific (ns; AP1, lanes A5, B5, and B12) oligomers were added with the labeled probe. Incubations with probe alone are shown in lanes A1, B1, and B8. Cell lysates used for in vitro translation were also incubated with the probes without (lanes A6 and B6) or with (lanes A7 and B7) RXR. RIP14-2 and the RIP14-1 chimeras containing a four amino acid insertion in the D domain (RIP14C) were also incubated with βRARE and RXR as shown in lanes B13 and B14, respectively. Specific bands are indicated by arrows.
(§2) To identify DNA sequences recognized by each orphan, in vitro translated proteins were used for gel shift assays. Because of their strong sequence similarity to the ecdysone receptor, a well studied ecdysone response element (EcRE) from the Drosophila hsp27 promoter (Riddilough et al., EMBO J. 6:3729-3734, 1987) was tested for binding to both orphans, in the presence and absence of RXR. […]

Data set [2] concerns the target RIP15/RXRalpha heterodimer (Mus musculus / Homo sapiens, UniProt Q60644;P19793 Q60644:1-446,P19793:1-462). Briefly: EMSA; with RXR. The note with it: tags: human RXRalpha expressed in E. coli; label: 32P end label. The method, then: (§3) The binding of the RIP14-2 isoform to this element was weaker than that of RIP14-1 when similar amounts of RIP14 proteins were used. […] Several other DNA elements were tested in the gel shift assay, including the retinoic acid response element from the promoter of the human RARβ2 isoform (βRARE) (de The et al., Nature 343:177-180, 1990). In the presence of RXR, the βRARE was bound by both the RIP14 isoforms and RIP15 (FIG. 8, panel B). Again, the binding of the RIP14-2/RXR heterodimer was weaker than the RIP14-1/RXR heterodimer when a similar amount of RIP14 proteins were used (FIG. 8, panel B, lanes 10 and 14).
(§4) RIP14 and RIP15 proteins were produced by in vitro translation (Promega TNT, Madison, Wis.) using expression vectors containing the RIP genes following a T7 promoter. To generate full length RIP14-2 constructs, fragments from RIP14-1 clone No. 15 containing regions from the middle of the E domain to the 3′ end replaced the corresponding regions of RIP14-2 Clones No. 3 or 12, respectively. Sequences were confirmed by DNA sequencing. Human RXRα protein was expressed in E. coli using a bacterial expression vector based on the bacteriophage T7 promoter (Carter et al., Mol. Cell. Biol. in press., 1994). […]
A general note: Mobility shift assays separate free from complexed probe on a gel.

Data set [3] deals with T1, RIP14-1/RXRalpha heterodimer. Briefly: EMSA; competition with 50-fold unlabeled EcRE (specific) and AP1 (nonspecific) tested; 40 mM KCl, 2.5 mM MgCl2, pH 8.0, room temp. As to conditions: tags: human RXRalpha expressed in E. coli; label: 32P end label. The method, then:
as §1, §2

Another data set deals with T2, RIP15 (Mus musculus, UniProt Q60644 SEQ:1-446).
T2 chain: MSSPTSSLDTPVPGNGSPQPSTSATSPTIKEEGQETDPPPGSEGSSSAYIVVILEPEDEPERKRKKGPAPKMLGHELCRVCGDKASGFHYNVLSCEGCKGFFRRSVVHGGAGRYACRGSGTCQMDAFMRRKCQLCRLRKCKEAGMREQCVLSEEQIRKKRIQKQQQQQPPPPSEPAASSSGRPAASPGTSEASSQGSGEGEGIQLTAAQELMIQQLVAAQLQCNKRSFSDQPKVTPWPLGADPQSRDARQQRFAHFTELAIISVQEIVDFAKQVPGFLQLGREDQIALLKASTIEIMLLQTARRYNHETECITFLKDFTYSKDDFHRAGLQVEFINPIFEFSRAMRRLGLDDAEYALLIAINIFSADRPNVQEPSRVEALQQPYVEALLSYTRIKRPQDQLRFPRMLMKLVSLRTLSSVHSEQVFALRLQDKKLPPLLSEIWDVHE
Briefly: EMSA; without RXR. As to conditions: label: 32P end label. As to the method: as §3, §4

T1 sequence (Q60641 other isoform, or with tags, fused parts or gaps, chain 1 of 2): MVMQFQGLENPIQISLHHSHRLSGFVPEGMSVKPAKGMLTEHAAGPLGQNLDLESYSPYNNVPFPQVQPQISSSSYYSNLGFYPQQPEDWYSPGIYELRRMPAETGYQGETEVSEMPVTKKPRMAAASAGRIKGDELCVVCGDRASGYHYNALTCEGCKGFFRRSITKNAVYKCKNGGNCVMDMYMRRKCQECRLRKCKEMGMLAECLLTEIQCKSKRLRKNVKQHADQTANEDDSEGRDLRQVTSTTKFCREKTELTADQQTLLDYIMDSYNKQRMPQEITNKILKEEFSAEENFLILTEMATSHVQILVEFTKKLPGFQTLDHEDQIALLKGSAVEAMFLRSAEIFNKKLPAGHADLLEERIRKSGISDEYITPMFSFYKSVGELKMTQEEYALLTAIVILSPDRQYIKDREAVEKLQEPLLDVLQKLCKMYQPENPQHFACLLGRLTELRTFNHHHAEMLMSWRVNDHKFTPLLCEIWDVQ
T1 sequence (P19793 whole entry, chain 2 of 2): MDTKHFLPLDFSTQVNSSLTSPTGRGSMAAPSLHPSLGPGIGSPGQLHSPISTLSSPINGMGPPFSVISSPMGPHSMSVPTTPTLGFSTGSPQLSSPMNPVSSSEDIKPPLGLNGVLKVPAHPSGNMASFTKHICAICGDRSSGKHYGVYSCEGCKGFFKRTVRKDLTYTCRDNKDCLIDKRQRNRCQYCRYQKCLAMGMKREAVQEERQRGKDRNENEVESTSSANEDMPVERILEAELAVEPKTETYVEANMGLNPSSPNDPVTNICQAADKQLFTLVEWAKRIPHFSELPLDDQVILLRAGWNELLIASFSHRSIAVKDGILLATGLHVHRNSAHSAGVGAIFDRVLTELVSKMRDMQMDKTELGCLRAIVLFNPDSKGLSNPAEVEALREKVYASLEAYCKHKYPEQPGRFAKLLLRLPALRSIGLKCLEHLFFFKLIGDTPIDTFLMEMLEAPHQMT
Sequence of RIP15/RXRalpha heterodimer (P19793 whole entry, canonical isoform, one chain of several): as the sequence (P19793 whole entry, chain 2 of 2) above

B1: betaRARE (dsDNA)
DNA 1: GATCCGGGTAGGGTTCACCGAAAGTTCACTCGA
DNA 2: TCGAGTGAACTTTCGGTGAACCCTACCCGGATC
On to B1, for which the binding result in data set [1] was “binds”.

B2: hsp27 EcRE (dsDNA)
DNA 1: CTAGACAAGGGTTCAATGCACTTGTCCATCG
DNA 2: CGATGGACAAGTGCATTGAACCCTTGTCTAG
Turning to B2, the binding result is reported as “no binding” in data set [2], “binds” in data set [3] and “no binding” with RIP15.
